How the values were obtained:
[1] = biological target: EBV gp350 on EBV-eGFP virions (Epstein-Barr virus) (UniProt P03200); experiment: cell-based or functional assay
[2] = biological target: murine 72A1 (m72A1), anti-EBV gp350 neutralizing antibody from hybridoma HB168; experiment: ELISA, mAb 10 µg/ml captured on soluble gp350, HRP secondary 1:2,000
humanized 72A1 (h72A1) = experiment: as above
[3] = biological target: T1, EBV gp350 on EBV-eGFP virions (Epstein-Barr virus, UniProt P03200 1-907); experiment: cell-based or functional assay
T1 sequence: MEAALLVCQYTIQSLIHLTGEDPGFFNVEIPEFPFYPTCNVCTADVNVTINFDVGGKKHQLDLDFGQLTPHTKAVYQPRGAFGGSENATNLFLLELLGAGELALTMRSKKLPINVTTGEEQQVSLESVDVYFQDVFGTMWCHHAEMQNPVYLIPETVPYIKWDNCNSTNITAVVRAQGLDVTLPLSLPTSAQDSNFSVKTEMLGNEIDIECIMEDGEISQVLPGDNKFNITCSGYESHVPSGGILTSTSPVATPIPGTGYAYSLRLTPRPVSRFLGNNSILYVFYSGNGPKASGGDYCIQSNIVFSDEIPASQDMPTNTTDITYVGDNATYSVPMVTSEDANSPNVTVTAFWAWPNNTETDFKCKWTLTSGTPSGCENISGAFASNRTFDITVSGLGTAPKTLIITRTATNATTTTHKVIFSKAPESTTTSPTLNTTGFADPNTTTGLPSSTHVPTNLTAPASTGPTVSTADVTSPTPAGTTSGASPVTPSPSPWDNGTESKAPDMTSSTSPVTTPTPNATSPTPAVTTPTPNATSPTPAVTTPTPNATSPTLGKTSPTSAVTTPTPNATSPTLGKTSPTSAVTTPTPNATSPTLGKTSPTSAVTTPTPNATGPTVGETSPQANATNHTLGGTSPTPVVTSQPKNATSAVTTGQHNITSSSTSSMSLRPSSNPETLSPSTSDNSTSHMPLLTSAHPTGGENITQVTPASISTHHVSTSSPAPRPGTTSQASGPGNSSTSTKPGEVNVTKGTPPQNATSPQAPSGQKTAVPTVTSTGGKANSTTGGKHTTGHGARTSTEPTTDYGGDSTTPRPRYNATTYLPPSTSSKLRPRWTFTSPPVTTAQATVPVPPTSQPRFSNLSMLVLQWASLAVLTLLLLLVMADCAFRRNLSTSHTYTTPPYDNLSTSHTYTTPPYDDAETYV

[4] = biological target: T2, EBV gp350 expressed on the surface of stably transfected CHO cells (Epstein-Barr virus, UniProt P03200 1-907); experiment: cell competition (flow), unlabeled 125 µg/ml; competitor: biotinylated m72A1 1 µg/ml
T2 construct: also called native gp350; gp350 expressing CHO cells
T2 sequence: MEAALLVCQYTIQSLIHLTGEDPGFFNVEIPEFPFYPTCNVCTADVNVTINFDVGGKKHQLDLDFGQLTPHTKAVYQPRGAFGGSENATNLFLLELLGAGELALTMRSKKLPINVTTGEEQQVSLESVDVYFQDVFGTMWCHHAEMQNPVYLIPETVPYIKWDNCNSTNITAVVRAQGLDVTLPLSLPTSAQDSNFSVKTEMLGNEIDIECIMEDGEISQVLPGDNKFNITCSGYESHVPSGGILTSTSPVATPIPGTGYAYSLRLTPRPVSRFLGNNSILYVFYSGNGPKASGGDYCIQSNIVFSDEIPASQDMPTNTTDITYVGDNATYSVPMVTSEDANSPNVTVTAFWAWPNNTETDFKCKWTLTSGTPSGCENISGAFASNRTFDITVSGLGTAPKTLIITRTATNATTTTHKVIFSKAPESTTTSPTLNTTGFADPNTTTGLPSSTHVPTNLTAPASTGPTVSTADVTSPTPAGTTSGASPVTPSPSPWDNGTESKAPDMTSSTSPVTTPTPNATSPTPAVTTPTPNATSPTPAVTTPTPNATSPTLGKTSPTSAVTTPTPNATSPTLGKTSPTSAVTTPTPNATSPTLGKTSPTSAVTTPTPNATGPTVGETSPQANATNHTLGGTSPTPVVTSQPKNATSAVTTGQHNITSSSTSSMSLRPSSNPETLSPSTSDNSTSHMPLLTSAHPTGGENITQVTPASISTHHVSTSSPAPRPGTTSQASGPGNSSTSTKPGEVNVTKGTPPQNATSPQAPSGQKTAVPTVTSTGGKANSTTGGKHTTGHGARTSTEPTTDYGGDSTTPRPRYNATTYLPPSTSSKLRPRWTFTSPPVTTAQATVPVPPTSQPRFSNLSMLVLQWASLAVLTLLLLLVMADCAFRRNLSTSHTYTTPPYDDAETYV

[5] = biological target: T2, EBV gp350 expressed on the surface of …; experiment: cell competition (flow), unlabeled 250 µg/ml; competitor: biotinylated m72A1 1 µg/ml
[6] = biological target: T2, EBV gp350 expressed on the surface of …; experiment: cell competition (flow), unlabeled 500 µg/ml; competitor: biotinylated m72A1 1 µg/ml
[7] = biological target: T2, EBV gp350 expressed on the surface of …; experiment: cell competition (flow), unlabeled 67.5 µg/ml; competitor: biotinylated m72A1 1 µg/ml
[8] = biological target: T2, EBV gp350 expressed on the surface of …; experiment: cross-competition on gp350-CHO cells (flow), unlabeled 500 µg/ml; competitor: biotinylated HB1
[9] = biological target: T2, EBV gp350 expressed on the surface of …; experiment: cross-competition on gp350-CHO cells (flow), unlabeled 500 µg/ml; competitor: biotinylated HB5
[10] = biological target: T2, EBV gp350 expressed on the surface of …; experiment: cross-competition on gp350-CHO cells (flow), unlabeled 500 µg/ml; competitor: biotinylated 54A1
[11] = biological target: T2, EBV gp350 expressed on the surface of …; experiment: cross-competition on gp350-CHO cells (flow), unlabeled 500 µg/ml; competitor: biotinylated HB11
[12] = biological target: T2, EBV gp350 expressed on the surface of …; experiment: cross-competition on gp350-CHO cells (flow), unlabeled 500 µg/ml; competitor: biotinylated HB17
[13] = biological target: T2, EBV gp350 expressed on the surface of …; experiment: cross-competition on gp350-CHO cells (flow), unlabeled 500 µg/ml; competitor: biotinylated HB20
[14] = biological target: T2, EBV gp350 expressed on the surface of …; experiment: cross-competition on gp350-CHO cells (flow), unlabeled 500 µg/ml; competitor: biotinylated h72A1
[15] = biological target: T2, EBV gp350 expressed on the surface of …; experiment: cross-competition on gp350-CHO cells (flow), unlabeled 500 µg/ml; competitor: biotinylated m72A1

murine 72A1 (m72A1), anti-EBV gp350 neutralizing antibody from hybridoma HB168, sequence (VH, as listed by the source limits assumed, chain 1 of 2): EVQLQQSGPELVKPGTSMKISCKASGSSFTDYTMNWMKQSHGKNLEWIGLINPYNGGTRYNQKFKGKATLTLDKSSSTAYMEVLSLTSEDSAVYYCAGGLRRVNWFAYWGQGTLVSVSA
murine 72A1 (m72A1), anti-EBV gp350 neutralizing antibody from hybridoma HB168, sequence (VL, as listed by the source limits assumed, chain 2 of 2): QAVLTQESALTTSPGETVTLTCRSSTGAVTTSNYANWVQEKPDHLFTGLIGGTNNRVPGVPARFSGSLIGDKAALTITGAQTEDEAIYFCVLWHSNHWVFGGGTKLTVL
humanized 72A1 (h72A1), sequence (VH, as listed by the source limits assumed, chain 1 of 2): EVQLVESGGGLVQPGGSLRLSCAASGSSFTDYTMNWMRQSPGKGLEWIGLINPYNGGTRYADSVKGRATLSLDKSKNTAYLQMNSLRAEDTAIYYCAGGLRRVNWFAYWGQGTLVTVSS
humanized 72A1 (h72A1), sequence (VL, as listed by the source limits assumed, chain 2 of 2): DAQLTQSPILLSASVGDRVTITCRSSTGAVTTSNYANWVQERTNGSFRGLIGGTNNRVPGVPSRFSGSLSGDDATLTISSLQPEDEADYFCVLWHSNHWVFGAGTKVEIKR

Q: Which % blocking of EBV-eGFP infection of Raji cells at 12.5 µg/ml [1] does the source give for “murine 72A1 (m72A1), anti-EBV gp350 neutralizing antibody from hybridoma HB168” here?
A: 93%

Q: What about the % neutralization of EBV-eGFP infection of Raji cells, 12.5-100 µg/ml [1] of the same molecule?
A: 35 to 80%

Q: “HRP-conjugated goat anti-mouse IgG (antibody)” was tested. Which fold ELISA signal above the background (1× PBS) [2] did it give?
A: 28 fold

Q: What about the fold ELISA signal as compared to goat anti-human IgG [2] of the same molecule?
A: 9 fold

Q: “HRP-conjugated goat anti-human IgG (antibody)” was tested. Which fold ELISA signal over the background (humanized 72A1 (h72A1)) did it give?
A: 2100 fold

B1: HB20 (antibody, V domains shown)
VH: ELVKPGASVKLSCKASGYTFTSYWIQWVKQRPGQGLEWIGEINPTNGHTNYNEKFKTKATLTVDKSSSTAYMRLSSLTSEDSAVYYCARNLYYYGRPDYWGQGTSVTVSS
VL: SSLSASLGDRVTISCRASQDIGNYLNWYQQKPDGTVKLLIYYTSRLHSGVPSRFSGSGSGTDYSLTISNLEQEDIATYFCQQGNALPPTFGGGTKLEIKR
Q: Which “% neutralization of EBV-eGFP infection of Raji cells at 100 µg/ml” value [3] does the source give for B1 here?
A: 90%

Q: What about the “% inhibition of biotinylated nAbs” value [4] of the same molecule?
A: 87%

Q: And the “% inhibition of biotinylated nAbs” value [5]?
A: 91%

Q: What about the “% inhibition of biotinylated nAbs” value [6] of the same molecule?
A: 96%

Q: What about the “% inhibition of biotinylated nAbs” value [7] of the same molecule?
A: 89%

Q: What about the “% inhibition of biotinylated nAbs” value [8] of the same molecule?
A: 88%

Q: What about the “% inhibition of biotinylated nAbs” value [9] of the same molecule?
A: 97%

Q: What about the “% inhibition of biotinylated nAbs” value [10] of the same molecule?
A: 0%

Q: And the “% inhibition of biotinylated nAbs” value [11]?
A: 89%

Q: And the “% inhibition of biotinylated nAbs” value [12]?
A: 13%

Q: What about the “% inhibition of biotinylated nAbs” value [13] of the same molecule?
A: 59%

Q: And the “% inhibition of biotinylated nAbs” value [14]?
A: 96%

Q: And the “% inhibition of biotinylated nAbs” value [15]?
A: 98%

From patent US20210115113A1 (CITY OF HOPE, published 2021)
